Biological target: Paracoccidioides brasiliensis 1-Cys peroxiredoxin (PbPrx1), recombinant (Paracoccidioides brasiliensis (isolate Pb18))
Test: SEC; analytical HPLC, Phenomenex BioSep-SEC-S3000 column, 50 uM protein in 100 mM Tris-HCl pH 7.4, run in 100 mM Tris-HCl pH 7.4 with 50 mM NaCl, 1.0 mL/min; samples treated beforehand with 5 mM TCEP (reduced) or 1.2 molar equivalents of H2O2 (oxidised) for 30 min at 25 C; dimeric in both redox states

Substance: Paracoccidioides brasiliensis 1-Cys peroxiredoxin (PbPrx1), recombinant (enzyme)
- stoichiometry N: 2

Source: paper PMC7417364
